Results published in the nanobody polyreactivity screen of Harvey et al. (2022).

Assay: yeast display, Sf9 membrane polyspecificity reagent, FACS + sequencing; frameworks hold sequencing errors
How it was run: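 Nanobodies came from a synthetic yeast display library in Saccharomyces cerevisiae BJ5465, induced with galactose for 36–48 hours and stained for 1 hour at 4 °C with 10% biotinylated, detergent-solubilized Sf9 membrane reagent. Cells were enriched on streptavidin microbeads and then FACS-sorted, with low and high (top ~1%) gates set on anti-HA fluorescence for expression and streptavidin fluorescence for reagent binding. Each polyreactivity label reflects the gate a clone came from. Genes were amplified by colony PCR, sequenced by MiSeq 2 × 250 and filtered by CDR length.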

Sequence	polyreactivity (PSR sort gate)
QVQLVESGGGLVQAGGSLRLSCAASGSILYVNAMGWYRQAPGKERELVASITDGGNTYYADSVKGRFTISRDNAKNTVYLQMNSLKPEDTAVYYCNAVGRIKVDYGLEYWGQGTQVTVSS	low polyreactivity
QVQLVESGGGLVQAGGSLRLSCAASGSILYVYAMGWYRQAPGKERELVAVITSGGSTNYADSVKGRFTISRDNAKNTVYLQMNSLKPEDTAVYYCAADPYSVYGGDYWGQGTQVTLSS	low polyreactivity
QVQLVESGGGLVQAGGSLRLSCAASGSILYYYAMGWYRQAPVKERELVATITSGGTTNYADSVKGRFTISRDNAKNTVYLQMISLKPEDTAVYYCAADWAWDTKSAPAYPRAYDYWGPGTQVTVSS	low polyreactivity
QVQLVESGGGLVQAGGSLRLSCAASGSIRYYAMGWYRQAPVKEREFVAAISRRGSSTNYADSVKGRFTISRDNAKNTVYLQMNSLKPDDTAVYYCARGLDVISYGYDYWGQGTQVTVSS	high polyreactivity
QVQLVESGGGLVQAGGSLRLSCAASGSIRYYYVMGWYRQAPGKERELVAAITSGGSTYYADSVKGRFTISRDNAKNTVYLQMNSLKPEDTAVYYCNARTRSLTGSRFNYWGQVTQVTVSS	high polyreactivity
QVQLVESGGGLVQAGGSLRLSCAASGSISAGNAMGWYRQAPGKERELVAAITTSGGSTYYADSVKGRFTISRDNAKNTVYLQMNSLKPEDTAVYYCNVDPRKRSYDYWGQGTQVTVSS	high polyreactivity
QVQLVESGGGLVQAGGSLRLSCAASGSISDSNAMGSYRQAPGKERELVAAIDDSGGSTYYADSVKGRFTISRDNAKNTVYLQMNSLKPEDTAVYYCAKTKTQYLTSEIRFVYWGQGTQVTVSS	low polyreactivity
QVQLVESGGGLVQAGGSLRLSCAASGSISDTYGMGWYRQAPGKERELVASITWSSGSTDYADSVKGRFTISRDNAKNTVYLQMNSLKPAETAVYYCATYEPFYSFIFRGIYDYWGQGTQVTVSS	low polyreactivity
QVQLVESGGGLVQAGGSLRLSCAASGSISFYAMGWYRQAPGKERELVAAITTSGGRTYYADSVKGRFTISRDNAKNTVYLQMNSLKPEDTAVYYCNVASKGRYARYAAEYGSWGQGTQVTVSS	high polyreactivity
QVQLVESGGGLVQAGGSLRLSCAASGSISGLYAMGWYRQAPGKERELVARIRWRGDSTYYADSVKGRFTISRDNAKNTVYLQMNSLNPEDTAVYYCAASAYSGKVNKYNYWGQGTQVTVSS	high polyreactivity
QVQLVESGGGLVQAGGSLRLSCAASGSISGLYAMGWYRQAPGKESELVAAISFSGGSTYYADSVKGRFTISRDNAKNTVYFQMNSLKPEDTAVYYCAADGQYGGVPNTSEWTFDYWGQGTQVTVSS	low polyreactivity
QVQLVESGGGLVQAGGSLRLSCAASGSISGRYAMGWYRQAPGKERELVAAISWIGGSTYYADSVKGRFTISRDNAKNTVYLQMNSLKPEDTAVYYCNVTIDTRTHPLLVVFYGYDYWGQGTQVTVSS	low polyreactivity
QVQLVESGGGLVQAGGSLRLSCAASGSISGSNDMGWYRQAPGKERELVAAISGGSSTNYADSVKGRFTISRDNAKNTVYFQMNSLKPEDTAVYYCAARYRWFFFYGPHSPGYNYWGQGTQVTVSS	high polyreactivity
QVQLVESGGGLVQAGGSLRLSCAASGSISGVYAMGWYRQAAGKDRALVAASSGGSGRTYYADSVKGRFTISRDNAKNTVYLQMISLKPEDTAVYYCAKTVLYSSYRKYDYWGQGSQVTVSS	high polyreactivity
QVQLVESGGGLVQAGGSLRLSCAASGSISGYNAMGWYRPAPGKERELVAVITTDGSTNYADSVKGRFTISRDNAKNTVYLQMNSLKPEDTAVYYCNTDDGWRLLWEYDYWGQGTQVTVSS	low polyreactivity
QVQLVESGGGLVQAGGSLRLSCAASGSISGYYAMGWYRQAPGKERELVASIRYTGARTYYADSVKGRFTISRDNAKNTVYLQMNSLKPEDTAVYYCAADFRSVFSKYSYYLYFDFDYWGQGTQVTVSS	low polyreactivity
QVQLVESGGGLVQAGGSLRLSCAASGSISKINAMGWYRQAPGKERELVAAINTGDSTYYADSVKGRFTISRDNAKNTVYLQMNSLKPEDTAVYYCATVVYTWFLAEEDDYCGQGTQVTVSS	low polyreactivity
